Experimental data: paper PMC9244803, “Development and Optimization of Bifunctional Fusion Proteins to Locally Modulate Complement Activation in Diseased Tissue” (Frontiers in Immunology, 2022)

B1: humanized Fab(3d8b) (Fab, V domains shown)
VH: QVQLVQSGAEVKKPGASVKVSCKASGYTFTNYYINWVRQAPGQGLEWMGVINPYSGGTSYNQKFKGRVTMTVDTSTSTAYMELSSLRSEDTAVYFCSSPYWGQGTLVTVSS
VL: DVVMTQSPLSLPVTLGQPASISCKSSQSLLDSDGKTYLNWFQQRPGQSPRRLIYLVSKLDSGVPDRFSGSGSGTDFTLKISRVEAEDVGVYYCWQGTHFPRTFGGGTKVEIK
notes: heavy chain (H) of PDB 7UE9; light chain (L) of PDB 7UE9; CDRs of mouse clone 3d8b grafted onto a human framework; solved with an IgG4-derived Fab (PDB 5DK3) as search model; also called 3d8b Fab
B2: humanized C3d mAb (CDRs of 3d8b grafted onto human IgG4 S228P, L235E) (antibody, V domains shown)
VH: QVQLVQSGAEVKKPGASVKVSCKASGYTFTNYYINWVRQAPGQGLEWMGVINPYSGGTSYNQKFKGRVTMTVDTSTSTAYMELSSLRSEDTAVYFCSSPYWGQGTLVTVSS
VL: DVVMTQSPLSLPVTLGQPASISCKSSQSLLDSDGKTYLNWFQQRPGQSPRRLIYLVSKLDSGVPDRFSGSGSGTDFTLKISRVEAEDVGVYYCWQGTHFPRTFGGGTKVEIK
notes: humanised heavy variable region with the CDRs of 3d8b; as the variable region of the heavy chain of m3 (PDB 7UE9 chain H); human IgG4 heavy constant region, hinge stabilized and Fc-mutated; humanised light chain with the CDRs of 3d8b; as the light chain of m3 (PDB 7UE9 chain L); IgG4; source: CHO cells, transient, purified (Protein A or IMAC, SEC)
B3: humanized C3d mAb-CR1_(1-10) (antibody, V domains shown)
VH: QVQLVQSGAEVKKPGASVKVSCKASGYTFTNYYINWVRQAPGQGLEWMGVINPYSGGTSYNQKFKGRVTMTVDTSTSTAYMELSSLRSEDTAVYFCSSPYWGQGTLVTVSS
VL: DVVMTQSPLSLPVTLGQPASISCKSSQSLLDSDGKTYLNWFQQRPGQSPRRLIYLVSKLDSGVPDRFSGSGSGTDFTLKISRVEAEDVGVYYCWQGTHFPRTFGGGTKVEIK
notes: humanised heavy variable region with the CDRs of 3d8b; as the variable region of the heavy chain of m3 (PDB 7UE9 chain H); human IgG4 heavy constant region, hinge stabilized and Fc-mutated; (Gly4Ser)2 linker; human complement receptor type 1 (CR1), the first 10 consensus repeats; humanised light chain with the CDRs of 3d8b; as the light chain of m3 (PDB 7UE9 chain L); also called lead fusion …

Tests used:
[1] = molecular target: T1, Human C3d crystallised with Fab(3d8b) (human, UniProt P01024); experiment: crystal structure; Fab(3d8b):C3d complex, sitting-drop vapor diffusion at 20°C, PEG, pH 7.0 to 8.5; 1.75 Å; PDB 7UE9; settings: both partners purified
T1 construct: human C3d as in PDB 7UE9 chain C
T1 sequence (P01024 1002-1303): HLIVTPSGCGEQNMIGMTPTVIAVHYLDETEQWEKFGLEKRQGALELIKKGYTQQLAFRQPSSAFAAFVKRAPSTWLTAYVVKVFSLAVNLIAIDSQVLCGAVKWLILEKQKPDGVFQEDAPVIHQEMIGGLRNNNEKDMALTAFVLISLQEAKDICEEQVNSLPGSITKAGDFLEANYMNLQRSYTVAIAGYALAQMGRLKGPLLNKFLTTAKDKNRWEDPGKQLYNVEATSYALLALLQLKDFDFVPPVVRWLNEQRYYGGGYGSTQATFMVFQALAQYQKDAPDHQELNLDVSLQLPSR

[2] = molecular target: T2, C3d deposited in the kidneys of CfH^-/- mice (mouse (endogenous in CfH^-/- mouse …, UniProt P01027)); experiment: immunostaining of cells or tissue; proteins injected into CfH^-/- mice; frozen kidney sections taken 7 or 14 days post-dose and stained with anti-Crry or anti-human IgG4; settings: one partner purified
T2 construct: C3d-containing fragments of mouse complement C3 deposited in renal glomeruli; source: endogenous, kidney glomeruli of CfH^-/- mice
T2 sequence (P01027 1002-1303): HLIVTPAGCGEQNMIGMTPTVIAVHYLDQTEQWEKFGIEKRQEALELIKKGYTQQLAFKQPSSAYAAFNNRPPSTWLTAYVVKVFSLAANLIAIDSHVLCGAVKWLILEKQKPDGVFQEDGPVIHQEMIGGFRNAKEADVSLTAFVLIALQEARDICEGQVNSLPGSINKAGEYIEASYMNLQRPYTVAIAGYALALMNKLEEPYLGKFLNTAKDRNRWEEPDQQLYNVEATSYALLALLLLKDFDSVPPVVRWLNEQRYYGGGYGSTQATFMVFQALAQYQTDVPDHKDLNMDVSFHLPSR

Binder	binding result [1]	binding result [2]
B1	binds	–
B2	–	binds
B3	–	binds
